This note sets out measurements from US20160046944, “APTAMER TO IL-17 AND USE THEREOF” (THE UNIVERSITY OF TOKYO, published 2016).

Usually IC50 stands for the concentration that gives 50% inhibition.

Common to all, as to settings: chain copies: 2
One series concerns the target T1, IL-17 (IL-17A) (Homo sapiens, UniProt Q16552 Q16552:24-155).
T1 sequence: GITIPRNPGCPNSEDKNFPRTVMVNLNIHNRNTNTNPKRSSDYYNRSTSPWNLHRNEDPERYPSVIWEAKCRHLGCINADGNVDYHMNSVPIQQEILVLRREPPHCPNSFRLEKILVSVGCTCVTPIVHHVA
In words: cell_activity; IL-6 release, NIH3T3. The method, then: (§1) First, human IL-17 and the aptamer produced in Example 1-1 were pre-incubated at 37° C. for 30 min, and added to NIH3T3 cell (ATCC, CRL1658) together with mouse TNFα (2 ng/mL). Then, after incubation for 24 hr, the culture supernatant was collected, and the amount of IL-6 was measured by BD Cytometric Bead Array (BD Biosciences). The IL-17 inhibitory action of each aptamer was determined from the amount of IL-6. For comparison with the aptamer of the present invention, a conventionally-known aptamer (aptamer No. 50) against IL-17 was used.

Series [1] deals with T2, IL-17 (Homo sapiens, UniProt Q16552 Q16552:24-155).
T2 sequence: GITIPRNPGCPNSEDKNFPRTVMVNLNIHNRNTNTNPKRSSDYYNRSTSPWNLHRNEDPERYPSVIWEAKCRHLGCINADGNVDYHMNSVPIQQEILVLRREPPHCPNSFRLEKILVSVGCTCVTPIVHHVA
In words: cell_activity; NIH3T3 IL-6 release. The method, then: as §1

Series [2] deals with T2, IL-17. In words: SPR; IL-17R-Fc on chip. The method, then: Whether aptamers shown by aptamer Nos. 1-49 inhibit the binding of IL-17 and IL-17 receptor was evaluated by the surface plasmon resonance method.
For the measurement, BIAcore2000 manufactured by BIAcore was used. […] As an analyte, IL-17 (100 or 150 nM) and an aptamer (50 or 100 nM) shown by aptamer No. 1-49 were mixed, maintained for 15 min and after that the mixture was flown.
Background: In SPR one partner is held on a chip, and binding of the other changes the refractive index at the surface.

B1: aptamer No. 41 (mixed)
mixed: GGGUAGCCGGAGGAGTCAGTAAUCGGTACCC
modifications: g(M)g(M)g(M)u(M)Agc(M)c(M)Gg(M)agg(M)a(M)gTc(F)agTaau(M)c(M)g(M)g(M)Ta(M)c(M)c(M)c(M)
B1 registered an IC50 with IL-17 (IL-17A) of 0.4 nM.

B2: aptamer No. 43 (mixed)
mixed: GGGUAGCCGGAGGAGTCAGTAAUCGGTACCC
modifications: g(M)g(M)g(M)u(M)Agc(M)c(M)Gg(M)agg(M)a(M)gTc(F)agTa(M)au(M)c(M)g(M)g(M)Ta(M)c(M)c(M)c(M)
B2 showed an IC50 with IL-17 (IL-17A) of 0.49 nM.

B3: aptamer No. 4 (mixed)
RNA: GGGUAGCCGGAGGAGUCAGUAAUCGGUACCC
modifications: 2'-OMe (M), 2'-F (F), PS (S) as marked; uppercase DNA [1,2,3,4,6,7,8,10,11,13,14,16,17,18,20,21,22,23,24,25,26,27,28]
In the series with IL-17 [1], B3 came in with an IC50 of 2.78 nM. For the same molecule, in the series with IL-17 [2], the binding signal was 26.8 % IL-17/IL-17R binding remaining.

B4: aptamer No. 25 (mixed)
mixed: GGGUAGCCGGAGGAGTCAGTAAUCGGTACCC
modifications: 2'-OMe (M), 2'-F (F) as marked; uppercase DNA [2'-OMe: 1-4,7,8,10,13,14,21,23-26,29-31; 2'-F: 17]
In the series with IL-17 [1], B4 yielded an IC50 of 1.64 nM. The binding signal in the series with IL-17 [2] is 11.7 % IL-17/IL-17R binding remaining.

B5: aptamer No. 2 (mixed)
RNA: GGGUAGCCGGAGGAGUCAGUAAUCGGUACCC
modifications: 2'-OMe (M), 2'-F (F), PS (S) as marked; uppercase DNA [2'-OMe at 1-3,10; 2'-F at 4,7,8,16,17,20,23,24,27; PS at 6; DNA at 9,29-31]
For B5, in the series with IL-17 [1], the IC50 was 0.68 nM. Besides, in the series with IL-17 [2], the binding signal was 32 % IL-17/IL-17R binding remaining.

B6: aptamer No. 39 (mixed)
mixed: GGGUAGCCGGAGGAGTCAGTAAUCGGTACCC
modifications: g(M)g(M)g(M)u(M)Agc(M)c(M)Gg(M)Agg(M)a(M)gTc(F)AgTaa(M)u(M)c(M)g(M)g(M)Ta(M)c(M)c(M)c(M)
In turn, B6 registered an IC50 with IL-17 (IL-17A) of 3.91 nM.

B7: aptamer No. 20 (mixed)
mixed: GGGUAGCCGGAGGAGTCAGTAAUCGGUACCC
modifications: 2'-OMe (M), 2'-F (F), PS (S) as marked; uppercase DNA [2'-OMe: 1-4,7,8,10,13,14,21,23-26,28; 2'-F: 17,18,27; PS: 6]
As for B7, the IC50 with IL-17 [1] worked out at 0.37 nM. In the series with IL-17 [2], the binding signal is 18.5 % IL-17/IL-17R binding remaining.

B8: aptamer No. 30 (mixed)
mixed: GGGUAGCCGGAGGAGTCAGTAAUCGGTACCC
modifications: g(M)g(M)g(M)u(M)Agc(M)c(M)Gg(M)Agg(M)a(M)gTc(F)agTa(M)Au(M)c(M)g(M)g(M)Ta(M)c(M)c(M)c(M)
The molecule B8 had an IC50 with IL-17 (IL-17A) of 1.49 nM.

B9: aptamer No. 12 (mixed)
mixed: GGGUAGCCGGAGGAGTCAGTAAUCGGUACCC
modifications: 2'-OMe (M), 2'-F (F) as marked; uppercase DNA [1,2,3,4,7,8,10,11,13,14,17,18,21,22,23,24,25,26,27,28]
On to B9, for which it took 0.52 nM to reach half-maximal inhibition with IL-17 [1] (IC50). Further, the binding signal in the series with IL-17 [2] was 24.4 % IL-17/IL-17R binding remaining.

B10: aptamer No. 3 (mixed)
RNA: GGGUAGCCGGAGGAGUCAGUAAUCGGUACCC
modifications: 2'-OMe (M), 2'-F (F) as marked; uppercase DNA [1,2,3,4,5,7,8,10,11,13,14,16,17,18,20,21,22,23,24,25,26,27]
For B10, the IC50 with IL-17 [1] is 2.08 nM. In the series with IL-17 [2], the binding signal was 25.3 % IL-17/IL-17R binding remaining.

B11: aptamer No. 28 (mixed)
mixed: GGGUAGCCGGAGGAGTCAGTAAUCGGTACCC
modifications: g(M)g(M)g(M)u(M)Agc(M)c(M)Gg(M)Agg(M)a(M)gTc(F)agTaau(M)c(M)g(M)g(M)Ta(M)c(M)c(M)c(M)
Take B11: the half-inhibitory concentration (IC50) with IL-17 (IL-17A) worked out at 2.11 nM.

B12: aptamer No. 24 (mixed)
mixed: GGGUAGCCGGAGGAGTCAGTAAUCGGTACCC
modifications: 2'-OMe (M), 2'-F (F) as marked; uppercase DNA [2'-OMe: 1-4,7,8,10,13,14,23-26,29-31; 2'-F: 17]
B12 gave a concentration for half-maximal inhibition (IC50) in the series with IL-17 [1] of 1.77 nM. The binding signal in the series with IL-17 [2] was 15.2 % IL-17/IL-17R binding remaining.

B13: aptamer No. 46 (mixed)
mixed: GGGUAGCCGGAGGAGTCAGTAAUCGGUACCC
modifications: g(M)g(M)g(M)u(M)Ag(S)c(M)c(M)Gg(M)Agg(M)a(M)gTc(F)agTaau(M)c(M)g(M)g(M)u(F)a(M)CCC
Consider B13, for which the IC50 with IL-17 (IL-17A) was 1.13 nM.

B14: aptamer No. 40 (mixed)
mixed: GGGUAGCCGGAGGAGTCAGTAAUCGGTACCC
modifications: g(M)g(M)g(M)u(M)Agc(M)c(M)Gg(M)Agg(M)a(M)gTc(F)AgTa(M)au(M)c(M)g(M)g(M)Ta(M)c(M)c(M)c(M)
In turn, B14 came in with an IC50 with IL-17 (IL-17A) of 3.75 nM.

B15: aptamer No. 27 (mixed)
mixed: GGGUAGCCGGAGGAGTCAGTAAUCGGTACCC
modifications: g(M)g(M)g(M)u(M)Ag(S)c(M)c(M)Gg(M)Agg(M)a(M)gTc(F)agTa(M)Au(M)c(M)g(M)g(M)Ta(M)c(M)c(M)c(M)
As for B15, in the series with IL-17 (IL-17A), 2.45 nM corresponded to half-maximal inhibition (IC50).

B16: aptamer No. 45 (mixed)
mixed: GGGUAGCCGGAGGAGTCAGTAAUCGGUACCC
modifications: g(M)g(M)g(M)u(M)Ag(S)c(M)c(M)Gg(M)agg(M)a(M)gTc(F)agTaau(M)c(M)g(M)g(M)u(F)a(M)CCC
In the series with IL-17 (IL-17A), B16 showed an IC50 of 0.76 nM.

B17: aptamer No. 9 (mixed)
mixed: GGGUAGCCGGAGGAGTCAGTAAUCGGUACCC
modifications: 2'-OMe (M), 2'-F (F), PS (S) as marked; uppercase DNA [1,2,3,4,6,7,8,10,11,13,14,17,18,21,22,23,24,25,26,27,28]
Consider B17, for which the IC50 with IL-17 [1] was determined as 0.64 nM. Moreover, the binding signal in the series with IL-17 [2] is 8.94 % IL-17/IL-17R binding remaining.

Turning to GGGUAGCCGGAGGAGTCAGTAAUCGGTACCC (mixed, g(M)g(M)g(M)u(M)Agc(M)c(M)gg(M)Agg(M)a(M)gTc(F)agTa(M)a(M)u(M)c(M)g(M)g(M)TACCC) [aptamer No. 32], in the series with IL-17 (IL-17A), the half-inhibitory concentration (IC50) is 4.62 nM.

B18: aptamer No. 23 (mixed)
mixed: GGGUAGCCGGAGGAGTCAGTAAUCGGTACCC
modifications: 2'-OMe (M), 2'-F (F), PS (S) as marked; uppercase DNA [2'-OMe: 1-4,7,8,10,13,14,23-26,29-31; 2'-F: 17; PS: 6]
The molecule B18 came in with an IC50 with IL-17 [1] of 1.34 nM. Further, the binding signal with IL-17 [2] is 13.4 % IL-17/IL-17R binding remaining.

B19: aptamer No. 19 (mixed)
mixed: GGGUAGCCGGAGGAGTCAGTAAUCGGUACCC
modifications: 2'-OMe (M), 2'-F (F), PS (S) as marked; uppercase DNA [2'-OMe: 1-4,7,8,10,13,14,21-26,28; 2'-F: 17,18,27; PS: 6]
As to B19, 2.78 nM corresponded to half-maximal inhibition with IL-17 [1] (IC50). Further, in the series with IL-17 [2], the binding signal was 8.46 % IL-17/IL-17R binding remaining.

B20: aptamer No. 8 (mixed)
mixed: GGGUAGCCGGAGGAGTCAGTAAUCGGUACCC
modifications: 2'-OMe (M), 2'-F (F), PS (S) as marked; uppercase DNA [1,2,3,4,6,7,8,10,11,13,14,17,18,23,24,25,26,27,28]
In the series with IL-17 [1], B20 gave an IC50 of 0.49 nM. Also, the binding signal with IL-17 [2] was 15.3 % IL-17/IL-17R binding remaining.
